Source: US20240327535A1 (EISAI R AND D MANAGEMENT, published 2024)
Like-named read-outs stand apart in the source and are kept apart here.

What was measured:
Assay in all cases: Octet BLI; Fab 200 nM
[1] = molecular target: T1, extracellular domain of human BCMA (human, UniProt Q02223 1-54)
T1 construct: amine-linked to Octet AR2G tips; also called hsBCMA; BCMA (human)
T1 sequence: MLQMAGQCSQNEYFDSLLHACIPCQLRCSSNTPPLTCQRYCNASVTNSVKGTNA

[2] = molecular target: T2, extracellular domain of rhesus monkey BCMA (rhesus monkey, UniProt F7FFA0 1-53)
T2 construct: extracellular domain; also called RhBCMA
T2 sequence (F7FFA0 entry or part of it): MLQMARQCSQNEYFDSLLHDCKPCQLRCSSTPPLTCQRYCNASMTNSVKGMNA

[3] = molecular target: T1, extracellular domain of human BCMA; remark: listed apart in the source
[4] = molecular target: T2, extracellular domain of rhesus monkey …; remark: listed apart in the source

Binder	Kd [1] [nM]	Kd [2] [nM]	Kd [3] [nM]	Kd [4] [nM]
AB200-R1a-Fab(hCDR2) (Fab, V domains shown) VH: QVQLVQSGAEVKKPGSSVKVSCKASGGTFSNYWMHWVRQAPGQGLEWMGATYRGHSDTYYNQKFKGRVTITADKSTSTAYMELSSLRSEDTAVYYCARGAIYHGYDVLDNWGQGTLVTVSS VL: DIQMTQSPSSLSASVGDRVTITCSASQDISNYLNWYQQKPGKAPKLLIYAASSLQSGVPSRFSGSGSGTDFTLTISSLQPEDFATYYCQQYRKLPWTFGQGTKLEIKR	2.14	7.14		
AB200-R1a-Fab_Vk6 (Fab, V domains shown, also called AB200 kappa variant 6; AB200_Vk6_Fab) VH: QVQLVQSGAEVKKPGSSVKVSCKASGGTFSNYWMHWVRQAPGQGLEWMGATYRGHSDTYYNQKFKGRVTITADKSTSTAYMELSSLRSEDTAVYYCARGAIYHGYDVLDNWGQGTLVTVSS VL: DIQMTQSPSSLSASVGDRVTITCSATQDISNYLNWYQQKPGKAPKLLIYFTSNLQSGVPSRFSGSGSGTDFTLTISSLQPEDFATYYCQQYRKLPWTFGQGTKLEIKR	1.11	4.26		
AB200-R1a-Fab_VH60 (Fab, V domains shown) VH: QVQLVQSGAEVKKPGSSVKVSCKASGGTFSSYWMHWVRQAPGQGLEWMGATYRIHSDSYYNQKFKGRVTITADKSTSTAYMELSSLRSEDTAVYYCARGAIYHGYDVLDNWGQGTLVTVSS VL: DIQMTQSPSSLSASVGDRVTITCSATQDISNYLNWYQQKPGKAPKLLIYFTSNLQSGVPSRFSGSGSGTDFTLTISSLQPEDFATYYCQQYRKLPWTFGQGTKLEIKR			13.6	17.8
AB200-R1a-Fab_VH16 (Fab, V domains shown) VH: QVQLVQSGAEVKKPGSSVKVSCKASGGTFSTYWMHWVRQAPGQGLEWMGATYRIHSDTYYNQKFKGRVTITADESTSTAYMELSSLRSEDTAVYYCARGAIYHGYDVLDNWGQGTLVTVSS VL: DIQMTQSPSSLSASVGDRVTITCSATQDISNYLNWYQQKPGKAPKLLIYFTSNLQSGVPSRFSGSGSGTDFTLTISSLQPEDFATYYCQQYRKLPWTFGQGTKLEIKR			14.3	15.2
AB200-R1a-Fab_Vk4 (Fab, V domains shown) VH: QVQLVQSGAEVKKPGSSVKVSCKASGGTFSNYWMHWVRQAPGQGLEWMGATYRGHSDTYYNQKFKGRVTITADKSTSTAYMELSSLRSEDTAVYYCARGAIYHGYDVLDNWGQGTLVTVSS VL: DIQMTQSPSSLSASVGDRVTITCTATQDITNYLNWYQQKPGKAPKLLIYYTSNLHSGVPSRFSGSGSGTDFTLTISSLQPEDFATYYCQQYRKLPWTFGQGTKLEIKR	2.2	7.9		
AB200-R1a-Fab_Vk19 (Fab, V domains shown) VH: QVQLVQSGAEVKKPGSSVKVSCKASGGTFSNYWMHWVRQAPGQGLEWMGATYRGHSDTYYNQKFKGRVTITADKSTSTAYMELSSLRSEDTAVYYCARGAIYHGYDVLDNWGQGTLVTVSS VL: DIQMTQSPSSLSASVGDRVTITCSASNDISNYINWYQQKPGKAPKLLIYYTSNLHSGVPSRFSGSGSGTDFTLTISSLQPEDFATYYCQQFRKLPWTFGQGTKLEIKR	2.07	5.74		
AB200-R1a-Fab_VH32 (Fab, V domains shown) VH: QVQLVQSGAEVKKPGSSVKVSCKASGGTFSNYWMHWVRQAPGQGLEWMGATYRSHSDTYYNQKFKSRVTITADKSTSTAYMELSSLRSEDTAVYYCARGAIYHGYDVIDNWGQGTLVTVSS VL: DIQMTQSPSSLSASVGDRVTITCSATQDISNYLNWYQQKPGKAPKLLIYFTSNLQSGVPSRFSGSGSGTDFTLTISSLQPEDFATYYCQQYRKLPWTFGQGTKLEIKR			1.09	4.17
AB200-R1a-Fab_VH59 (Fab, V domains shown) VH: QVQLVQSGAEVKKPGSSVKVSCKATGGTFSNYAMHWVRQAPGQGLEWMGASYRGHSDTYYNQKFKGRVTITADKSTSTAYMELSSLRSEDTAVYYCARGAIYHGYDVLDNWGQGTLVTVSS VL: DIQMTQSPSSLSASVGDRVTITCSATQDISNYLNWYQQKPGKAPKLLIYFTSNLQSGVPSRFSGSGSGTDFTLTISSLQPEDFATYYCQQYRKLPWTFGQGTKLEIKR			26.2	28.3
AB200-R1a-Fab_Vk1 (Fab, V domains shown) VH: QVQLVQSGAEVKKPGSSVKVSCKASGGTFSNYWMHWVRQAPGQGLEWMGATYRGHSDTYYNQKFKGRVTITADKSTSTAYMELSSLRSEDTAVYYCARGAIYHGYDVLDNWGQGTLVTVSS VL: DIQMTQSPSSLSASVGDRVTITCRASQDISSYLNWYQQKPGKAPKLLIYYTSNIHSGVPSRFSGSGSGTDFTLTISSLQPEDFATYYCQQYRKLPWTFGQGTKLEIKR	1.75	6.37		
AB200-R1a-Fab_Vk7 (Fab, V domains shown) VH: QVQLVQSGAEVKKPGSSVKVSCKASGGTFSNYWMHWVRQAPGQGLEWMGATYRGHSDTYYNQKFKGRVTITADKSTSTAYMELSSLRSEDTAVYYCARGAIYHGYDVLDNWGQGTLVTVSS VL: DIQMTQSPSSLSASVGDRVTITCSASQDISNFLNWYQQKPGKAPKLLIYYTSNLHSGVPSRFSGSGSGTDFTLTISSLQPEDFATYYCQQFRKMPWTFGQGTKLEIKR	14.7	25.1		
AB200-R1a-Fab_Vk14 (Fab, V domains shown) VH: QVQLVQSGAEVKKPGSSVKVSCKASGGTFSNYWMHWVRQAPGQGLEWMGATYRGHSDTYYNQKFKGRVTITADKSTSTAYMELSSLRSEDTAVYYCARGAIYHGYDVLDNWGQGTLVTVSS VL: DIQMTQSPSSLSASVGDRVTITCSASQDISNYLNWYQQKPGKAPKLLIYYSSNMHSGVPSRFSGSGSGTDFTLTISSLQPEDFATYYCQQFRKLPWTFGQGTKLEIKR	4.03	11.5		
AB200-R1a-Fab_Vk5 (Fab, V domains shown) VH: QVQLVQSGAEVKKPGSSVKVSCKASGGTFSNYWMHWVRQAPGQGLEWMGATYRGHSDTYYNQKFKGRVTITADKSTSTAYMELSSLRSEDTAVYYCARGAIYHGYDVLDNWGQGTLVTVSS VL: DIQMTQSPSSLSASVGDRVTITCSASQDISSYLNWYQQKPGKAPKLLIYYTSNLHSGVPSRFSGSGSGTDFTLTISSLQPEDFATYYCQQYRSTPWTFGQGTKLEIKR	7.83	27.5		
AB200-R1a-Fab_VH50 (Fab, V domains shown) VH: QVQLVQSGAEVKKPGSSVKVSCKASGGTFSNYWMHWVRQAPGQGLEWMGATFRGHSDTYYNQKFKSRVTITADKSTSTAYMELSSLRSEDTAVYYCARGAVYHGYDVLDNWGQGTLVTVSS VL: DIQMTQSPSSLSASVGDRVTITCSATQDISNYLNWYQQKPGKAPKLLIYFTSNLQSGVPSRFSGSGSGTDFTLTISSLQPEDFATYYCQQYRKLPWTFGQGTKLEIKR			4.67	9.65
AB200-R1a-Fab_Vk11 (Fab, V domains shown) VH: QVQLVQSGAEVKKPGSSVKVSCKASGGTFSNYWMHWVRQAPGQGLEWMGATYRGHSDTYYNQKFKGRVTITADKSTSTAYMELSSLRSEDTAVYYCARGAIYHGYDVLDNWGQGTLVTVSS VL: DIQMTQSPSSLSASVGDRVTITCRASQDVSNYLNWYQQKPGKAPKLLIYYTTNLHSGVPSRFSGSGSGTDFTLTISSLQPEDFATYYCQQYRKLPWTFGQGTKLEIKR	1.53	5.74		
AB200-R1a-Fab_Vk13 (Fab, V domains shown) VH: QVQLVQSGAEVKKPGSSVKVSCKASGGTFSNYWMHWVRQAPGQGLEWMGATYRGHSDTYYNQKFKGRVTITADKSTSTAYMELSSLRSEDTAVYYCARGAIYHGYDVLDNWGQGTLVTVSS VL: DIQMTQSPSSLSASVGDRVTITCSASNDISNYLNWYQQKPGKAPKLLIYYSSDLHSGVPSRFSGSGSGTDFTLTISSLQPEDFATYYCQQYRKLPWTFGQGTKLEIKR	7.14	24.6		
AB200-R1a-Fab_Vk20 (Fab, V domains shown) VH: QVQLVQSGAEVKKPGSSVKVSCKASGGTFSNYWMHWVRQAPGQGLEWMGATYRGHSDTYYNQKFKGRVTITADKSTSTAYMELSSLRSEDTAVYYCARGAIYHGYDVLDNWGQGTLVTVSS VL: DIQMTQSPSSLSASVGDRVTITCSASQDISNFLNWYQQKPGKAPKLLIYYTSDLHSGVPSRFSGSGSGTDFTLTISSLQPEDFATYYCQQYYKLPWTFGQGTKLEIKR	12.8	13.5		
AB200-R1a-Fab_Vk18 (Fab, V domains shown) VH: QVQLVQSGAEVKKPGSSVKVSCKASGGTFSNYWMHWVRQAPGQGLEWMGATYRGHSDTYYNQKFKGRVTITADKSTSTAYMELSSLRSEDTAVYYCARGAIYHGYDVLDNWGQGTLVTVSS VL: DIQMTQSPSSLSASVGDRVTITCTASQDISNYLNWYQQKPGKAPKLLIYYTSDLHIGVPSRFSGSGSGTDFTLTISSLQPEDFATYYCQQYRKLPWTFGQGTKLEIKR	2.93	11		
AB200-R1a-Fab_Vk17 (Fab, V domains shown) VH: QVQLVQSGAEVKKPGSSVKVSCKASGGTFSNYWMHWVRQAPGQGLEWMGATYRGHSDTYYNQKFKGRVTITADKSTSTAYMELSSLRSEDTAVYYCARGAIYHGYDVLDNWGQGTLVTVSS VL: DIQMTQSPSSLSASVGDRVTITCSATQDISNYLNWYQQKPGKAPKLLIYYTTNLHSGVPSRFSGSGSGTDFTLTISSLQPEDFATYYCQQYYKLPWTFGQGTKLEIKR	4.45	7.71		
AB200-R1a-Fab_VH8 (Fab, V domains shown) VH: QVQLVQSGAEVKKPGSSVKVSCKASGGTFSNYWMHWVRQAPGQGLEWMGATYRSHSDTYYNQKFKGRVTITADESTSTAYMELSSLRSEDTAVYYCARGAIFHGYDVLDNWGQGTLVTVSS VL: DIQMTQSPSSLSASVGDRVTITCSATQDISNYLNWYQQKPGKAPKLLIYFTSNLQSGVPSRFSGSGSGTDFTLTISSLQPEDFATYYCQQYRKLPWTFGQGTKLEIKR			0.948	3.14
AB200-R1a-Fab_Vk3 (Fab, V domains shown) VH: QVQLVQSGAEVKKPGSSVKVSCKASGGTFSNYWMHWVRQAPGQGLEWMGATYRGHSDTYYNQKFKGRVTITADKSTSTAYMELSSLRSEDTAVYYCARGAIYHGYDVLDNWGQGTLVTVSS VL: DIQMTQSPSSLSASVGDRVTITCSASQDISNYINWYQQKPGKAPKLLIYYTSNMHSGVPSRFSGSGSGTDFTLTISSLQPEDFATYYCQQYRKLPWSFGQGTKLEIKR	1.84	6.21		
